We go through 54 substances from patent US10745460B2, “Peptides and combination of peptides for use in immunotherapy against various tumors” (Immatics Biotechnologies GmbH, priority 2015, dated 2020).

This experiment has as its target HLA-A*02:01 (Homo sapiens, UniProt P04439, D140Y/D185E/D98H/E176V/E277Q/G131W/G231S/I119V/I121R/I166T/I218V/L300P/L318F/N151K/N90K/P208A/P217A/Q86G/Q94H/R138H/R169H/T345S). As to the kind of experiment: MHC binding assay: UV-ligand exchange with β2m ELISA (peptide exchange yield). The conditions noted are these: binding to HLA-A*02:01 evaluated by peptide exchange yield (UV-ligand exchange, β2m ELISA). An excerpt: Candidate peptides for T cell based therapies according to the present invention were further tested for their MHC binding capacity (affinity). The individual peptide-MHC complexes were produced by UV-ligand exchange, where a UV-sensitive peptide is cleaved upon UV-irradiation, and exchanged with the peptide of interest as analyzed. Only peptide candidates that can effectively bind and stabilize the peptide-receptive MHC molecules prevent dissociation of the MHC complexes. To determine the yield of the exchange reaction, an ELISA was performed based on the detection of the light chain (β2m) of stabilized MHC complexes. The assay was performed as generally described in Rodenko et al. (Rodenko et al., 2006).
96 well MAXISorp plates (NUNC) were coated over night with 2 ug/ml streptavidin in PBS at room temperature, washed 4× and blocked for 1 h at 37° C. in 2% BSA containing blocking buffer. Refolded HLA-A*02:01/MLA-001 monomers served as standards, covering the range of 15-500 ng/ml. Peptide-MHC monomers of the UV-exchange reaction were diluted 100 fold in blocking buffer. Samples were incubated for 1 h at 37° C., washed four times, incubated with 2 ug/ml HRP conjugated anti-β2m for 1 h at 37° C., washed again and detected with TMB solution that is stopped with […]. Absorption was measured at 450 nm. Candidate peptides that show a high exchange yield (preferably higher than 50%, most preferred higher than 75%) are generally preferred for a generation and production of antibodies or fragments thereof, and/or T cell receptors or fragments thereof, as they show sufficient avidity to the MHC molecules and prevent dissociation of the MHC complexes.
On the technique in general: An ELISA detects its analyte on a solid surface through an enzyme-linked reagent.
As for “76 (FTAEFLEKV; listed as Homo sapiens) [compound 76]”, the Peptide exchange result is “+++ (≥50 = +++)”.

Regarding “77 (ALYGNVQQV; listed as Homo sapiens) [compound 77]”, the Peptide exchange entry is “+++ (≥50 = +++)”.

In the case of “79 (TVLEEIGNRV; listed as Homo sapiens) [compound 79]”, the Peptide exchange result was “++ (≥20% = ++)”.

For the substance “80 (VLTGQVHEL; listed as Homo sapiens) [compound 80]”, the Peptide exchange entry was “+++ (≥50 = +++)”.

Turning to “81 (ILAEEPIYI; listed as Homo sapiens) [compound 81]”, the Peptide exchange entry is “++ (≥20% = ++)”.

Take “82 (ILAEEPIYIRV; listed as Homo sapiens) [compound 82]”: the Peptide exchange entry is “+++ (≥50 = +++)”.

In the case of “83 (GLLENSPHL; listed as Homo sapiens) [compound 83]”, the Peptide exchange entry is recorded as “++ (≥20% = ++)”.

“84 (FLLEREQLL; listed as Homo sapiens) [compound 84]”: the Peptide exchange entry is reported as “++++ (≥75% = ++++)”.

As for “85 (KLLDKPEQFL; listed as Homo sapiens) [compound 85]”, the Peptide exchange result is “++ (≥20% = ++)”.

As for “86 (SLFSNIESV; listed as Homo sapiens) [compound 86]”, the Peptide exchange result is given as “+++ (≥50 = +++)”.

As for “87 (KLLSLLEEA; listed as Homo sapiens) [compound 87]”, the Peptide exchange entry is listed as “+++ (≥50 = +++)”.

Take “88 (LLLPLELSLA; listed as Homo sapiens) [compound 88]”: the Peptide exchange entry is on record as “+++ (≥50 = +++)”.

Consider “89 (SLAETIFIV; listed as Homo sapiens) [compound 89]”, for which the Peptide exchange result is recorded as “+++ (≥50 = +++)”.

“90 (AILNVDEKNQV; listed as Homo sapiens) [compound 90]”: the Peptide exchange result is reported as “++ (≥20% = ++)”.

In the case of “91 (LLPSIFLMV; listed as Homo sapiens) [compound 91]”, the Peptide exchange entry is “++ (≥20% = ++)”.

Consider “92 (RLFEEVLGV; listed as Homo sapiens) [compound 92]”, for which the Peptide exchange result is “++++ (≥75% = ++++)”.

For the substance “93 (RLYGYFHDA; listed as Homo sapiens) [compound 93]”, the Peptide exchange entry was “++ (≥20% = ++)”.

With “94 (YLDEVAFML; listed as Homo sapiens) [compound 94]”, the Peptide exchange result is “+++ (≥50 = +++)”.

As for “95 (KLIDEDEPLFL; listed as Homo sapiens) [compound 95]”, the Peptide exchange result is “+++ (≥50 = +++)”.

For the substance “96 (ALDTTRHEL; listed as Homo sapiens) [compound 96]”, the Peptide exchange result is recorded as “++ (≥20% = ++)”.

Consider “97 (KLFEKSTGL; listed as Homo sapiens) [compound 97]”, for which the Peptide exchange result was “+++ (≥50 = +++)”.

As to “98 (FVQEKIPEL; listed as Homo sapiens) [compound 98]”, the Peptide exchange result is “+++ (≥50 = +++)”.

Turning to “99 (TLFGIQLTEA; listed as Homo sapiens) [compound 99]”, the Peptide exchange result was “+++ (≥50 = +++)”.

“100 (ALQSFEFRV; listed as Homo sapiens) [compound 100]”: the Peptide exchange entry is listed as “+++ (≥50 = +++)”.

Consider “101 (SLLEVNEASSV; listed as Homo sapiens) [compound 101]”, for which the Peptide exchange entry is “+++ (≥50 = +++)”.

In the case of “102 (GLYPVTLVGV; listed as Homo sapiens) [compound 102]”, the Peptide exchange result is listed as “+++ (≥50 = +++)”.

As to “103 (YLADTVQKL; listed as Homo sapiens) [compound 103]”, the Peptide exchange result is on record as “++ (≥20% = ++)”.

In the case of “105 (AMLASQTEA; listed as Homo sapiens) [compound 105]”, the Peptide exchange entry is “++ (≥20% = ++)”.

Turning to “106 (VLLGSVVIFA; listed as Homo sapiens) [compound 106]”, the Peptide exchange result was “++ (≥20% = ++)”.

With “107 (RVLPGQAVTGV; listed as Homo sapiens) [compound 107]”, the Peptide exchange entry is recorded as “++ (≥20% = ++)”.

For “108 (FIANLPPELKA; listed as Homo sapiens) [compound 108]”, the Peptide exchange result is on record as “+++ (≥50 = +++)”.

With “109 (ILGSFELQL; listed as Homo sapiens) [compound 109]”, the Peptide exchange result is given as “+++ (≥50 = +++)”.

For the substance “110 (QIQGQVSEV; listed as Homo sapiens) [compound 110]”, the Peptide exchange result is recorded as “++ (≥20% = ++)”.

On to “111 (AQLEGKLVSI; listed as Homo sapiens) [compound 111]”, for which the Peptide exchange entry is listed as “+++ (≥50 = +++)”.

Take “112 (ILAQDVAQL; listed as Homo sapiens) [compound 112]”: the Peptide exchange entry is recorded as “+++ (≥50 = +++)”.

Turning to “113 (FLFLKEVKV; listed as Homo sapiens) [compound 113]”, the Peptide exchange entry is “++ (≥20% = ++)”.

As to “114 (LLFPSDVQTL; listed as Homo sapiens) [compound 114]”, the Peptide exchange entry was “++ (≥20% = ++)”.

For “115 (ILHGEVNKV; listed as Homo sapiens) [compound 115]”, the Peptide exchange entry is recorded as “++ (≥20% = ++)”.

In the case of “116 (ALLSSVAEA; listed as Homo sapiens) [compound 116]”, the Peptide exchange result is on record as “++ (≥20% = ++)”.

In the case of “117 (TLLEGISRA; listed as Homo sapiens) [compound 117]”, the Peptide exchange entry is reported as “++ (≥20% = ++)”.

In the case of “119 (SLIEESEEL; listed as Homo sapiens) [compound 119]”, the Peptide exchange entry is recorded as “++ (≥20% = ++)”.

As for “121 (ALYVQAPTV; listed as Homo sapiens) [compound 121]”, the Peptide exchange entry is listed as “++ (≥20% = ++)”.

“122 (SIIDTELKV; listed as Homo sapiens) [compound 122]”: the Peptide exchange result is given as “+++ (≥50 = +++)”.

For the substance “123 (QTAPEEAFIKL; listed as Homo sapiens) [compound 123]”, the Peptide exchange entry is given as “+ (≥10% = +)”.

In the case of “124 (ALLLRLFTI; listed as Homo sapiens) [compound 124]”, the Peptide exchange result is “++ (≥20% = ++)”.

With “125 (AALEVLAEV; listed as Homo sapiens) [compound 125]”, the Peptide exchange result is recorded as “+++ (≥50 = +++)”.

In the case of “126 (QLREAFEQL; listed as Homo sapiens) [compound 126]”, the Peptide exchange entry is “+++ (≥50 = +++)”.

On to “128 (SILTNISEV; listed as Homo sapiens) [compound 128]”, for which the Peptide exchange result is listed as “++ (≥20% = ++)”.

In the case of “129 (KMASKVTQV; listed as Homo sapiens) [compound 129]”, the Peptide exchange entry was “++ (≥20% = ++)”.

With “130 (QLYGSAITL; listed as Homo sapiens) [compound 130]”, the Peptide exchange entry was “+++ (≥50 = +++)”.

Turning to “131 (SLYPHFTLL; listed as Homo sapiens) [compound 131]”, the Peptide exchange entry is recorded as “+++ (≥50 = +++)”.

For the substance “132 (ALLNNVIEV; listed as Homo sapiens) [compound 132]”, the Peptide exchange entry is “+++ (≥50 = +++)”.

“133 (FLDGRPLTL; listed as Homo sapiens) [compound 133]”: the Peptide exchange result was “++ (≥20% = ++)”.

Consider “134 (SLYKSFLQL; listed as Homo sapiens) [compound 134]”, for which the Peptide exchange entry was “++ (≥20% = ++)”.
